In patent US6627193:

Target: purified human protein C (PC), P04070
Sequence (P04070 whole entry, looked up): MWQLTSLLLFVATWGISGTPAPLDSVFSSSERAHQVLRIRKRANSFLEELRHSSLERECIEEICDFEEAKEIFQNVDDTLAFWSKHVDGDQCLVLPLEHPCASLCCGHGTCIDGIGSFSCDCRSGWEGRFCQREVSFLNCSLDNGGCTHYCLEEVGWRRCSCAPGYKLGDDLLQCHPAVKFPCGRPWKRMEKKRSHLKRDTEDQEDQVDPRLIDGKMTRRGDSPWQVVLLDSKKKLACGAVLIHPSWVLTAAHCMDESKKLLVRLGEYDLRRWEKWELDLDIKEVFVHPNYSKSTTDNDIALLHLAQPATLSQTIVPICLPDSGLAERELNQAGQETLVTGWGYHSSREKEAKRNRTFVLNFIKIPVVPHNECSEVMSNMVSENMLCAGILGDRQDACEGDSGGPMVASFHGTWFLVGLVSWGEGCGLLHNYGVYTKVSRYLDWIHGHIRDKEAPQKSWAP

B1: TLCK-inactivated RgpB (protein)
chain: YTPVEEKENGRMIVIVAKKYEGDIKDFVDWKNQRGLRTEVKVAEDIASPVTANAIQQFVKQEYEKEGNDLTYVLLVGDHKDIPAKITPGIKSDQVYGQIVGNDHYNEVFIGRFSCESKEDLKTQIDRTIHYERNITTEDKWLGQALCIASAEGGPSADNGESDIQHENVIANLLTQYGYTKIIKCYDPGVTPKNIIDAFNGGISLVNYTGHGSETAWGTSHFGTTHVKQLTNSNQLPFIFDVACVNGDFLFSMPCFAEALMRAQKDGKPTGTVAIIASTIDQYWAPPMRGQDEMNEILCEKHPNNIKRTFGGVTMNGMFAMVEKYKKDGENMLDTWTVFGDPSLLVRTLVPTEMQVTAPANISASAQTFEVACDYNGAIATLSDDGDMVGTAIVKDGKAIIKLNESIADETNLTLTVVGYNKVTVIKDVKVEGTSIADVANDKPYTVAVSGKTITVESPAAGLTIFDMNGRRVATAKNRMVFEAQNGVYAVRIATEGKTYTEKVIVK
In the case of B1, the “APC activity generated from purified PC” value is reported as “TLCK-treated enzymes did not induce PC activation”.

B2: RgpB (50 kDa gingipain R, RGP-2) from Porphyromonas gingivalis HG66 (protein)
chain: B1 chain
With B2 the “APC activity generated from purified PC (amidolytic assay with Boc-Leu-Ser-Thr-Arg-MCA)” value was “Both proteinases generated APC linearly in a dose- and incubation time-dependent manner”, the “APC activity generated in human plasma” value was “with RgpB negligible APC was detected” and the Km (activation of human protein C) was 3.8 µM. It also gave a kcat (activation of human protein C) of 0.015 s⁻¹ and a kcat/Km (activation of human protein C) of 3900 M⁻¹ s⁻¹.
